The data set has as its target T1, translation initiation factor IF3 (Escherichia coli) (UniProt P0A707).
T1 sequence: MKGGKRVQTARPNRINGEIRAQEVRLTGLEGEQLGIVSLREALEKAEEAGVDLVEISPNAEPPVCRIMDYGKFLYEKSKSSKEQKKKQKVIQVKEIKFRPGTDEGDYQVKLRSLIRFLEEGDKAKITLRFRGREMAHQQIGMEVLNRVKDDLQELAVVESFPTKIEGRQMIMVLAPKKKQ
The data set is described as follows: fluorescence anisotropy. As to conditions: Binding buffer and temperature not given in material; EMSA gels in Tris/acetate or Tris/borate; anisotropy with 200 nM RNA and DFHBI-1T; protein storage buffer …. A general note: Fluorescence polarisation rises when a labelled molecule tumbles more slowly, as on binding a larger partner.

These results are taken from paper PMC8956599.

As a reminder, the Kd is the free concentration of one partner at which half of the binding sites on the other are occupied at equilibrium, for simple one-to-one binding. In the case of “GGGUGGUAACUAGCCAAGCAGCUAGUUACCAAAUCGGGAGAAUCCCGGGUCCUCUCUUUAGGGGGAGGUCCCUGGGCCGAAGCCCGCCCACCUUUCGGUGGAGCCGGACCGCUUUCGCACCCGUGCUCUUUCGAGCACACCCACCCCGUUUACGGGGGUCCCUCGGUCAGCUACCGAGGAGUUGCCAUGUGUAUGUGGGAGACGGUCGGGUCCAGAUAUUCGUAUCUGUCGAGUAGAGUGUGGGCUCCCACAUACUCUGAUGAUCCUUCGGGAUCAUUCAUGGCAAAAACCUCCUAGGAAUGGAAUUCCGGCUACCUACAGCGAUAGCCAUGGUAGCGUCUCGCUAAAGACAUUAAAAAUGGCAUUAGCUCGACAGGAAGUUGAGCAGGACCCCGAAAGGGGUCCCACCC [[F30-Bro(+)]UTR(-)]”, the Kd was 3.5 µM.
